*1 amine or outer side, *2 acyl side, *3 side chain or, on linkers, in order; H or OH if unused. Where no end group is shown, it is not given here. Side-chain parts run from the residue outwards. The star is where a group is joined. C18 diacid = O=C(O)CCCCCCCCCCCCCCCCC(=O)*; C16 diacid = O=C(O)CCCCCCCCCCCCCCC(=O)*; γGlu = O=C(O)[C@H](CCC(=O)[*:2])N[*:1]; AEEA = NCCOCCOCC(=O)O
T1: human GIP receptor (human, UniProt P48546 22-466)
T1 sequence (looked up): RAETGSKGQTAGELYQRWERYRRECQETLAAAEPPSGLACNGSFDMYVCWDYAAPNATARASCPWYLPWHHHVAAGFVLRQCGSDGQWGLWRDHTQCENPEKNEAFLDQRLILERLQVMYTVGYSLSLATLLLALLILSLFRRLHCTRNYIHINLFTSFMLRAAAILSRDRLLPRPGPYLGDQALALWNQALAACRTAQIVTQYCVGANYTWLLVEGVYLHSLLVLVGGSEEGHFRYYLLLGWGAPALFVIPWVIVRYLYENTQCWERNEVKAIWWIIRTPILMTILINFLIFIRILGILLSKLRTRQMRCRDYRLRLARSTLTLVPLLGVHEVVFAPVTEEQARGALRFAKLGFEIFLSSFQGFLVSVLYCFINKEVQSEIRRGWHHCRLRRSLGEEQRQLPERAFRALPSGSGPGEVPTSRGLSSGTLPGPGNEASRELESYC

B1: AT355 (peptide)
peptide: SDYSIAMDKIK(C16 diacid)QQDFVNWLLAQK-NH2
modifications: N-terminus assumed
SMILES: CC[C@H](C)[C@H](NC(=O)[C@H](CO)NC(=O)[C@H](Cc1ccc(O)cc1)NC(=O)[C@H](CC(=O)O)NC(=O)[C@@H](N)CO)C(=O)N[C@@H](C)C(=O)N[C@@H](CCSC)C(=O)N[C@@H](CC(=O)O)C(=O)N[C@@H](CCCCN)C(=O)N[C@H](C(=O)N[C@@H](CCCCNC(=O)CCCCCCCCCCCCCCC(=O)O)C(=O)N[C@@H](CCC(N)=O)C(=O)N[C@@H](CCC(N)=O)C(=O)N[C@@H](CC(=O)O)C(=O)N[C@@H](Cc1ccccc1)C(=O)N[C@H](C(=O)N[C@@H](CC(N)=O)C(=O)N[C@@H](Cc1c[nH]c2ccccc12)C(=O)N[C@@H](CC(C)C)C(=O)N[C@@H](CC(C)C)C(=O)N[C@@H](C)C(=O)N[C@@H](CCC(N)=O)C(=O)N[C@@H](CCCCN)C(N)=O)C(C)C)[C@@H](C)CC
B2: AT357 (peptide)
peptide: YSIAMDKIK(C16 diacid)QQDFVNWLLAQK-NH2
modifications: N-terminus assumed
SMILES: CC[C@H](C)[C@H](NC(=O)[C@H](CO)NC(=O)[C@@H](N)Cc1ccc(O)cc1)C(=O)N[C@@H](C)C(=O)N[C@@H](CCSC)C(=O)N[C@@H](CC(=O)O)C(=O)N[C@@H](CCCCN)C(=O)N[C@H](C(=O)N[C@@H](CCCCNC(=O)CCCCCCCCCCCCCCC(=O)O)C(=O)N[C@@H](CCC(N)=O)C(=O)N[C@@H](CCC(N)=O)C(=O)N[C@@H](CC(=O)O)C(=O)N[C@@H](Cc1ccccc1)C(=O)N[C@H](C(=O)N[C@@H](CC(N)=O)C(=O)N[C@@H](Cc1c[nH]c2ccccc12)C(=O)N[C@@H](CC(C)C)C(=O)N[C@@H](CC(C)C)C(=O)N[C@@H](C)C(=O)N[C@@H](CCC(N)=O)C(=O)N[C@@H](CCCCN)C(N)=O)C(C)C)[C@@H](C)CC
B3: AT354 (peptide)
peptide: ISDYSIAMDKIK(C16 diacid)QQDFVNWLLAQK-NH2
modifications: N-terminus assumed
SMILES: CC[C@H](C)[C@H](N)C(=O)N[C@@H](CO)C(=O)N[C@@H](CC(=O)O)C(=O)N[C@@H](Cc1ccc(O)cc1)C(=O)N[C@@H](CO)C(=O)N[C@H](C(=O)N[C@@H](C)C(=O)N[C@@H](CCSC)C(=O)N[C@@H](CC(=O)O)C(=O)N[C@@H](CCCCN)C(=O)N[C@H](C(=O)N[C@@H](CCCCNC(=O)CCCCCCCCCCCCCCC(=O)O)C(=O)N[C@@H](CCC(N)=O)C(=O)N[C@@H](CCC(N)=O)C(=O)N[C@@H](CC(=O)O)C(=O)N[C@@H](Cc1ccccc1)C(=O)N[C@H](C(=O)N[C@@H](CC(N)=O)C(=O)N[C@@H](Cc1c[nH]c2ccccc12)C(=O)N[C@@H](CC(C)C)C(=O)N[C@@H](CC(C)C)C(=O)N[C@@H](C)C(=O)N[C@@H](CCC(N)=O)C(=O)N[C@@H](CCCCN)C(N)=O)C(C)C)[C@@H](C)CC)[C@@H](C)CC
B4: AT384 (peptide)
peptide: SGTFISDYSIAMDRIK([AEEA-AEEA-γGlu-C18 diacid])QQDFVNWLLAQR-NH2
modifications: N-terminus assumed
SMILES: CC[C@H](C)[C@H](NC(=O)[C@H](CO)NC(=O)[C@H](Cc1ccc(O)cc1)NC(=O)[C@H](CC(=O)O)NC(=O)[C@H](CO)NC(=O)[C@@H](NC(=O)[C@H](Cc1ccccc1)NC(=O)[C@@H](NC(=O)CNC(=O)[C@@H](N)CO)[C@@H](C)O)[C@@H](C)CC)C(=O)N[C@@H](C)C(=O)N[C@@H](CCSC)C(=O)N[C@@H](CC(=O)O)C(=O)N[C@@H](CCCNC(=N)N)C(=O)N[C@H](C(=O)N[C@@H](CCCCNC(=O)COCCOCCNC(=O)COCCOCCNC(=O)CC[C@H](NC(=O)CCCCCCCCCCCCCCCCC(=O)O)C(=O)O)C(=O)N[C@@H](CCC(N)=O)C(=O)N[C@@H](CCC(N)=O)C(=O)N[C@@H](CC(=O)O)C(=O)N[C@@H](Cc1ccccc1)C(=O)N[C@H](C(=O)N[C@@H](CC(N)=O)C(=O)N[C@@H](Cc1c[nH]c2ccccc12)C(=O)N[C@@H](CC(C)C)C(=O)N[C@@H](CC(C)C)C(=O)N[C@@H](C)C(=O)N[C@@H](CCC(N)=O)C(=O)N[C@@H](CCCNC(=N)N)C(N)=O)C(C)C)[C@@H](C)CC
B5: AT393 (peptide)
peptide: SGTFISDYSIAMDRIK(C18 diacid)QQDFVNWLLAQR-NH2
modifications: N-terminus assumed
SMILES: CC[C@H](C)[C@H](NC(=O)[C@H](CO)NC(=O)[C@H](Cc1ccc(O)cc1)NC(=O)[C@H](CC(=O)O)NC(=O)[C@H](CO)NC(=O)[C@@H](NC(=O)[C@H](Cc1ccccc1)NC(=O)[C@@H](NC(=O)CNC(=O)[C@@H](N)CO)[C@@H](C)O)[C@@H](C)CC)C(=O)N[C@@H](C)C(=O)N[C@@H](CCSC)C(=O)N[C@@H](CC(=O)O)C(=O)N[C@@H](CCCNC(=N)N)C(=O)N[C@H](C(=O)N[C@@H](CCCCNC(=O)CCCCCCCCCCCCCCCCC(=O)O)C(=O)N[C@@H](CCC(N)=O)C(=O)N[C@@H](CCC(N)=O)C(=O)N[C@@H](CC(=O)O)C(=O)N[C@@H](Cc1ccccc1)C(=O)N[C@H](C(=O)N[C@@H](CC(N)=O)C(=O)N[C@@H](Cc1c[nH]c2ccccc12)C(=O)N[C@@H](CC(C)C)C(=O)N[C@@H](CC(C)C)C(=O)N[C@@H](C)C(=O)N[C@@H](CCC(N)=O)C(=O)N[C@@H](CCCNC(=N)N)C(N)=O)C(C)C)[C@@H](C)CC
B6: AT385 (peptide)
peptide: SGTFISDYSIAMDRIK([AEEA-AEEA-AEEA-γGlu-C18 diacid])QQDFVNWLLAQR-NH2
modifications: N-terminus assumed
SMILES: CC[C@H](C)[C@H](NC(=O)[C@H](CO)NC(=O)[C@H](Cc1ccc(O)cc1)NC(=O)[C@H](CC(=O)O)NC(=O)[C@H](CO)NC(=O)[C@@H](NC(=O)[C@H](Cc1ccccc1)NC(=O)[C@@H](NC(=O)CNC(=O)[C@@H](N)CO)[C@@H](C)O)[C@@H](C)CC)C(=O)N[C@@H](C)C(=O)N[C@@H](CCSC)C(=O)N[C@@H](CC(=O)O)C(=O)N[C@@H](CCCNC(=N)N)C(=O)N[C@H](C(=O)N[C@@H](CCCCNC(=O)COCCOCCNC(=O)COCCOCCNC(=O)COCCOCCNC(=O)CC[C@H](NC(=O)CCCCCCCCCCCCCCCCC(=O)O)C(=O)O)C(=O)N[C@@H](CCC(N)=O)C(=O)N[C@@H](CCC(N)=O)C(=O)N[C@@H](CC(=O)O)C(=O)N[C@@H](Cc1ccccc1)C(=O)N[C@H](C(=O)N[C@@H](CC(N)=O)C(=O)N[C@@H](Cc1c[nH]c2ccccc12)C(=O)N[C@@H](CC(C)C)C(=O)N[C@@H](CC(C)C)C(=O)N[C@@H](C)C(=O)N[C@@H](CCC(N)=O)C(=O)N[C@@H](CCCNC(=N)N)C(N)=O)C(C)C)[C@@H](C)CC

The binders below were run against T1, human GIP receptor (assay: cell-based or functional assay).

Binder	cAMP antagonism % inhib [%]	cAMP antagonism IC50 [nM]	cAMP antagonism log IC50 [log M]
B1	100	53	-7.3
B2	100	528	-6.3
B3	100	10	-8

Biological target: T1, human GIP receptor
Experiment: cell-based or functional assay
Remark: another data set of the same source

Binder	CisBio cAMP antagonism % inhib [%]	CisBio cAMP antagonism IC50 [nM]	cAMP antagonism % inhib [%]	cAMP antagonism IC50 [nM]
B4	97	54.1	100	8
B5	78	33.5	100	1
B6	70	43	100	4

Biological target: T1, human GIP receptor
Experiment: cell-based or functional assay
Remark: another data set of the same source

Binder	CisBio cAMP agonism % Efficacy [%]	CisBio cAMP antagonism % inhib [%]	CisBio cAMP antagonism IC50 [nM]	CisBio cAMP antagonism pIC50	DiscoveRx cAMP antagonism % inhib [%]	DiscoveRx cAMP antagonism IC50 [nM]	DiscoveRx cAMP antagonism log IC50 [log M]
B4	0	97	54.1	7.3	100	8	-8.1
B1	0	65	233	6.6	–	–	–
B2	0	40	178	6.8	–	–	–
B5	6	78	33.5	7.5	100	1	-8.9
B3	0	91	108	7	–	–	–
B6	3	70	43	7.4	100	4	-8.4

From patent US20220025010A1 (ANTAG THERAPEUTICS, published 2022)
